B1: GST-mGFP-SH3BP2-FLAG (natural protein)
chain: MAAEEMQWPVPMKAIGAQNLLTMPGGVAKAGYLHKKGGTQLQLLKWPLRFVIIHKRCIYYFKSSTSASPQGAFSLSGYNRVMRAAEETTSNNVFPFKIIHISKKHRTWFFSASSEDERKSWMAFVRREIGHFHEKKELPLDTSDSSSDTDSFYGAVERPIDISLSSYPMDNEDYEHEDEDDSYLEPDSPGPMKLEDALTYPPAYPPPPVPVPRKPAFSDLPRAHSFTSKSPSPLLPPPPPKRGLPDTGSAPEDAKDALGLRRVEPGLRVPATPRRMSDPPMSNVPTVPNLRKHPCFRDSVNPGLEPWTPGHGTSSVSSSTTMAVATSRNCDKLKSFHLSSRGPPTSEPPPVPANKPKFLKIAEEPSPREAAKFAPVPPVAPRPPVQKMPMPEATVRPAVLPRPENTPLPHLQRSPPDGQSFRGFSFEKARQPSQADTGEEDSDEDYEKVPLPNSVFVNTTESCEVERLFKATDPRGEPQDGLYCIRNSSTKSGKVLVVWDESSNKVRNYRIFEKDSKFYLEGEVLFASVGSMVEHYHTHVLPSHQSLLLRHPYGYAGPR

The data set “sedimentation assay” concerns the molecule itself. The data set can be described thus: sedimentation assay.
Data set [1] has as its target T1, SH3BP2-FLAG (full-length) (mouse, UniProt Q06649 1-559).
T1 sequence: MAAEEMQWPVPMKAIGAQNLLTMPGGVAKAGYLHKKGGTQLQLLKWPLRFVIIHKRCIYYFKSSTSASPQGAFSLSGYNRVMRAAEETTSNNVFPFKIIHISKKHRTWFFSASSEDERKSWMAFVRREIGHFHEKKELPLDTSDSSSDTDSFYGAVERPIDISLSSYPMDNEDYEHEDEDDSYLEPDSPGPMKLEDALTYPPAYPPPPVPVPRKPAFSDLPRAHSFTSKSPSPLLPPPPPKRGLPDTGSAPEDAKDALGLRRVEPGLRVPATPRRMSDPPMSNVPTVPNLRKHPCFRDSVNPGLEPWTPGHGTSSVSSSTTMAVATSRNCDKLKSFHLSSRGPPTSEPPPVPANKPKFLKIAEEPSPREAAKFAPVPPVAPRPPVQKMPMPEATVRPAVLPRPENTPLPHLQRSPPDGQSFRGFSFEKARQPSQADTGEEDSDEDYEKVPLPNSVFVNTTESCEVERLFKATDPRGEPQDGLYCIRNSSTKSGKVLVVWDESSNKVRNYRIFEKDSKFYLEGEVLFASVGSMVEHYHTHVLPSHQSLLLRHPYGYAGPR
The data set can be described thus: co-IP.

For the data set “GST-mGFP-SH3BP2-FLAG”, the target named is B1. The data set can be described thus: recruitment into protein droplets.

As to B1, the binding result in the data set “sedimentation assay” is given as “binds”.

B2: GST-cytAChRα (domain or fragment)
chain: NTHHRSPSTHIMPEWVRKVFIDTIPNIMFFSTMKRPSRDKQEKRIFTEDIDISDISGKPGPPPMGFHSPLIKHPEVKSAIEGVKYIAETMKSDQESNNAAEEWKYVAMVMDH
As to B2, in data set [1], the binding result is “binds”.

B3: GST-cytAChRα-mCherry (domain or fragment)
chain: NTHHRSPSTHIMPEWVRKVFIDTIPNIMFFSTMKRPSRDKQEKRIFTEDIDISDISGKPGPPPMGFHSPLIKHPEVKSAIEGVKYIAETMKSDQESNNAAEEWKYVAMVMDH
Take B3: the binding result in the data set with GST-mGFP-SH3BP2-FLAG is reported as “binds”.

The record behind these values is doi:10.1101/2024.05.23.595491 (bioRxiv, 2024).
